Five molecules from patent publication US20140134183A1 (CELL MEDICA SWITZERLAND, published 2014) can be followed below.

Changes are numbered by the printed parent chain. Where two headings read alike, the source gives them in different places.

The target of assay [1] is T1, recombinant human IL-1 beta (human, UniProt P01584 117-269). The experiment in a line: cell-based or functional assay.
Assay [2] concerns the target T1, recombinant human IL-1 beta. Briefly: cell-based or functional assay. This is another data set of the same source.

B1: DLX2528 (scFv)
scFv: EIVMTQSPSTLSASVGDRVTITCQASQSIGNWLAWYQQKPGKAPKLLIYQASNLASGVPSRFSGSGSGTDFTLTISSLQPDDFATYYCQNAGGATTIAFGQGTKLTVLGGGGGSGGGGSGGGGSGGGGSEVQLVESGGGLVQPGGSLRLSCTASGFSLSSAAMAWVRQAPGKGLEWVGIIYDSASTYYASWAKGRFTISRDTSKNTVYLQMNSLRAEDTAVYYCARERAIFSGDFVLWGQGTLVTVSS
Regarding B1, in assay [1], the “IC50 of IL-1 beta-induced IL-6 release from human dermal fibroblasts” value (“IC50 of IL-1 beta-induced IL-6 release” for short) was 8 pM.

B2: DLX2547 (scFv)
scFv: ADIVMTQSPSTLSASVGDRVTITCQASQSISSYLSWYQQKPGKAPKLLIYRASTLASGVPSRFSGSGSGAEFTLTISSLQPDDFATYYCQNTGGGINIAFGQGTKLEIKRGGGGSGGGGSGGGGSGGGGSEVQLVESGGGLVQPGGSLRLSCTASGFSLSSAAMAWVRQAPGKGLEWVGIIYDSASTYYASWAKGRFTISRDTSKNTVYLQMNSLRAEDTAVYYCARERAIFSGDFVLWGQGTLVTVSS
Turning to B2, the “IC50 of IL-1 beta-induced IL-6 release” value in assay [1] is 30 pM.

B3: anti-human IL-1 beta monoclonal IgG antibody MAB201 (antibody, from another filing, V domains shown)
VH: QVTLKESGPGILKPSQTLSLTCSFSGFSLSTSGMGVGWIRQPSGKGLEWLAHIWWDGDESYNPSLKTRLTISKNTSRNQVFLKITTVDTVDTATYFCARNRYDPPWFVDWGQGTLVTVSS
VL: DIQMTQTTSSLSASLGDRVTISCRASQDISNYLSWYQQKPDGTVKLLIYYTSKLHSGVPSRFSGSGSGTDYFLTISNLEQEDIATYFCLQGKMLPWTFGGGTKLEIK
Take B3: the IC50 of IL-1 beta-induced IL-6 release from human dermal fibroblasts in assay [2] is 2 to 3 pM.

B4: DLX2545 (scFv)
scFv: EIVMTQSPSTLSASVGDRVIITCQASQSIDNWLSWYQQKPGKAPKLLIYRASTLASGVPSRFSGSGSGAEFTLTISSLQPDDFATYYCQNTGGGVSIAFGQGTKLTVLGGGGGSGGGGSGGGGSGGGGSEVQLVESGGGLVQPGGSLRLSCTASGFSLSSAAMAWVRQAPGKGLEWIGIIYDSASTYYASWAKGRFTISRDTSKNTLYLQMNSLRAEDTAVYFCARERNIFSGDMVLWGQGTTVTVSS
In the case of B4, the “IC50 of IL-1 beta-induced IL-6 release” value in assay [1] was found to be 7 pM.

B5: DLX2586 (scFv)
scFv: B4 scFv with A153V, A161Y, A164S, R200K, L207V, N229Q, V236D, L237G, T243L
B5: in assay [1], the “IC50 of IL-1 beta-induced IL-6 release” value turned out to be 2 pM.
